Laboratory results published in patent publication US20140286859A1 (published 2014).
Values joined by “and” are separate entries in the source; they are usually repeats but may differ in a detail not shown here. Equal values may be shown once.

Target: recombinant soluble PSMA (rsPSMA) (human, UniProt Q04609 44-750)
Sequence (Q04609 44-750): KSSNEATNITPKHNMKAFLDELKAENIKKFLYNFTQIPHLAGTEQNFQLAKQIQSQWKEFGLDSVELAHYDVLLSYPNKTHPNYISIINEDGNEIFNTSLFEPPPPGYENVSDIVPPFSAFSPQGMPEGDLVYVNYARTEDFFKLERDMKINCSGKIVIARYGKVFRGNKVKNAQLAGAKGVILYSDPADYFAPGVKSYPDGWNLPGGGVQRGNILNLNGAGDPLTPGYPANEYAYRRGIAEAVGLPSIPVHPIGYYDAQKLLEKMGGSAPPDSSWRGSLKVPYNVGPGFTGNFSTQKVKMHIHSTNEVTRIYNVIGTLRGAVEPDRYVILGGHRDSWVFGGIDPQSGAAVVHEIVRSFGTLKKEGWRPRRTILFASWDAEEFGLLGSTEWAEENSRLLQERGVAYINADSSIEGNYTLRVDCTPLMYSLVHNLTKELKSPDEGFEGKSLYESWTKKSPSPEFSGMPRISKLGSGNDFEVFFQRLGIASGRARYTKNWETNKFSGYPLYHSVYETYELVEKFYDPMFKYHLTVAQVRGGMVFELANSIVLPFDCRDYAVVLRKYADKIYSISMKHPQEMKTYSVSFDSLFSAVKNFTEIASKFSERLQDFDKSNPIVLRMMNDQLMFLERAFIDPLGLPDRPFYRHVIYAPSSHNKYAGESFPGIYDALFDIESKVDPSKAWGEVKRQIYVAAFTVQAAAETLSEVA

B1: PSMA 10.3 (antibody, V domains shown)
VH: QEQLVESGGGVVQPGRSLRLSCAASGFTFSTYGMHWVRQAPGKGLEWVAVTWHDGSNKYYADSVKGRFTISRDNSKNTLYLQMNSLRAEDTAVYYCARGGVGATYYYYYGMDVWGQGTTVTVSS
VL: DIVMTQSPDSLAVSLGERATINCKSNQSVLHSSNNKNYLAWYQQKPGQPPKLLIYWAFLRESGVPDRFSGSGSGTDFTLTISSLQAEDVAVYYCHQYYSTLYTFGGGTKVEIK
In the case of B1, the koff is reported as 6.32e-05 s⁻¹ and 6.43e-05 s⁻¹.
